Data set [1] deals with T1, AGO2 A367P (Homo sapiens, UniProt Q9UKV8 1-859, A367P;S387D;S824A;S828D;S831D;S834A). Nature of the data set: northern blot of purified complex; ~1:1 AGO2:miR-122; 30 mM Tris pH 8.0, 100 mM KOAc, 2 mM MgOAc, 0.5 mM TCEP, 0.005% NP-40, 0.01 mg/ml yeast tRNA, room temperature, 2 h (equilibrium); association buffer listed without Mg. The note with it: protein: recombinant; tags: His6 (N-terminal, pFastBac HTA).

For data set [2], the target named is T2, AGO2 L192P (Homo sapiens, UniProt Q9UKV8 1-859, L192P;S387D;S824A;S828D;S831D;S834A). The data set is described as above. The note with it: protein: recombinant; tags: His6 (N-terminal, pFastBac HTA).
Data set [3] has as its target T3, AGO2 F182del (Homo sapiens, UniProt Q9UKV8 1-859, S387D;S824A;S828D;S831D;S834A;del182-182). The data set is described as above. The note with it: protein: recombinant; tags: His6 (N-terminal, pFastBac HTA).
The target of data set [4] is T4, AGO2 T357M (Homo sapiens, UniProt Q9UKV8 1-859, T357M;S387D;S824A;S828D;S831D;S834A). Described as above. The note with it: protein: recombinant; tags: His6 (N-terminal, pFastBac HTA).
Data set [5] deals with T1, AGO2 A367P. Nature of the data set: pull-down; recovery similar to WT; 30 mM Tris pH 8.0, 100 mM KOAc, 2 mM MgOAc, 0.5 mM TCEP, 0.005% NP-40, 0.01 mg/ml yeast tRNA, room temperature, 2 h (equilibrium); association buffer listed without Mg. The note with it: protein: recombinant; tags: His6 (N-terminal, pFastBac HTA); label: biotin on capture oligo; guide paired in part with capture oligo.

The target in data set [6] is T2, AGO2 L192P. The description is as above. The note with it: protein: recombinant; tags: His6 (N-terminal, pFastBac HTA); label: biotin on capture oligo; guide paired in part with capture oligo.
Data set [7] addresses T3, AGO2 F182del. Described as above. The note with it: protein: recombinant; tags: His6 (N-terminal, pFastBac HTA); label: biotin on capture oligo; guide paired in part with capture oligo.
Data set [8] addresses T4, AGO2 T357M. Described as above. The note with it: protein: recombinant; tags: His6 (N-terminal, pFastBac HTA); label: biotin on capture oligo; guide paired in part with capture oligo.
In data set [9] the target is T4, AGO2 T357M. Nature of the data set: filter binding; 2 mM Mg2+; 30 mM Tris pH 8.0, 100 mM KOAc, 2 mM MgOAc, 0.5 mM TCEP, 0.005% NP-40, 0.01 mg/ml yeast tRNA, room temperature, 2 h (equilibrium); association buffer listed without Mg. The note with it: protein: recombinant; tags: His6 (N-terminal, pFastBac HTA); label: 32P 5' on target; guide g2-g8 paired with target ACACUCC; remainder unpaired.

For data set [10], the target named is T1, AGO2 A367P. Nature of the data set: filter binding (association); AGO2-miR-122 0.25-1.5 nM; 30 mM Tris pH 8.0, 100 mM KOAc, 2 mM MgOAc, 0.5 mM TCEP, 0.005% NP-40, 0.01 mg/ml yeast tRNA, room temperature, 2 h (equilibrium); association buffer listed without Mg. The note with it: protein: recombinant; tags: His6 (N-terminal, pFastBac HTA); label: 32P 5' on target; guide g2-g8 paired with target ACACUCC; remainder unpaired.

The target in data set [11] is T2, AGO2 L192P. Described as above. The note with it: protein: recombinant; tags: His6 (N-terminal, pFastBac HTA); label: 32P 5' on target; guide g2-g8 paired with target ACACUCC; remainder unpaired.
The target in data set [12] is T1, AGO2 A367P. As to the kind of experiment: filter binding (dissociation); 300 nM unlabeled target chase; 30 mM Tris pH 8.0, 100 mM KOAc, 2 mM MgOAc, 0.5 mM TCEP, 0.005% NP-40, 0.01 mg/ml yeast tRNA, room temperature, 2 h (equilibrium); association buffer listed without Mg. The note with it: protein: recombinant; tags: His6 (N-terminal, pFastBac HTA); label: 32P 5' on target; guide g2-g8 paired with target ACACUCC; remainder unpaired.

Data set [13] deals with T4, AGO2 T357M. The data set is described as above. The note with it: protein: recombinant; tags: His6 (N-terminal, pFastBac HTA); label: 32P 5' on target; guide g2-g8 paired with target ACACUCC; remainder unpaired.
The target of data set [14] is T2, AGO2 L192P. Nature of the data set: filter binding (dissociation); 300 nM unlabeled target chase; slowest release; 30 mM Tris pH 8.0, 100 mM KOAc, 2 mM MgOAc, 0.5 mM TCEP, 0.005% NP-40, 0.01 mg/ml yeast tRNA, room temperature, 2 h (equilibrium); association buffer listed without Mg. The note with it: protein: recombinant; tags: His6 (N-terminal, pFastBac HTA); label: 32P 5' on target; guide g2-g8 paired with target ACACUCC; remainder unpaired.

Binding result and binding signal data for three molecules are collected here from paper PMC12529666, “Dysregulation of AGO2-miRNA dynamics underlies the AGO2-associated Lessel–Kreienkamp syndrome”.

T1 sequence (Q9UKV8 whole entry A367P/S387D/S824A/S828D/S831D/S834A): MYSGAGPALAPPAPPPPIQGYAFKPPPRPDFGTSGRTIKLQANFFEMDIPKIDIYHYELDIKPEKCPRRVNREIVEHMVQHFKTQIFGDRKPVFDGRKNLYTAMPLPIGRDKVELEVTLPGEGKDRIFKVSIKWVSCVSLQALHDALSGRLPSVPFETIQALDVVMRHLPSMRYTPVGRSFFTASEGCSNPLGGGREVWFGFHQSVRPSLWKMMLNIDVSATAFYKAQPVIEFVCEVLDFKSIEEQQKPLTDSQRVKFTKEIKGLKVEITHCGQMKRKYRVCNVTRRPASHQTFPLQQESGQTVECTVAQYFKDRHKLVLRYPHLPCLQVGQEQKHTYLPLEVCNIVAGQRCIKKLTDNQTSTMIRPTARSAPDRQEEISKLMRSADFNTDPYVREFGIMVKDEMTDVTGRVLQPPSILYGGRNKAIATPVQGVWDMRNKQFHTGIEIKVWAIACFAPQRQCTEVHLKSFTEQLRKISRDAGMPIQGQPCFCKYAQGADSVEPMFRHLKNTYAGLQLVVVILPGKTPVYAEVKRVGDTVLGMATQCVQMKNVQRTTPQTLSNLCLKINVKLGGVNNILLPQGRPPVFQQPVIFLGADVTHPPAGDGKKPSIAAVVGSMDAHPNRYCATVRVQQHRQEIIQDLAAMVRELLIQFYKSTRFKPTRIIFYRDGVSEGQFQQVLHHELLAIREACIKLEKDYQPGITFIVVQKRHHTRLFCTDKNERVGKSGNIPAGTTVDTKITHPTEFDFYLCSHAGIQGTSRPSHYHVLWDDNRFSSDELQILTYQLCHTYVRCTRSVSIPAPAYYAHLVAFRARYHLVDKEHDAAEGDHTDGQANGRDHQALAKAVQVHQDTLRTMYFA
T4 sequence (Q9UKV8 whole entry T357M/S387D/S824A/S828D/S831D/S834A): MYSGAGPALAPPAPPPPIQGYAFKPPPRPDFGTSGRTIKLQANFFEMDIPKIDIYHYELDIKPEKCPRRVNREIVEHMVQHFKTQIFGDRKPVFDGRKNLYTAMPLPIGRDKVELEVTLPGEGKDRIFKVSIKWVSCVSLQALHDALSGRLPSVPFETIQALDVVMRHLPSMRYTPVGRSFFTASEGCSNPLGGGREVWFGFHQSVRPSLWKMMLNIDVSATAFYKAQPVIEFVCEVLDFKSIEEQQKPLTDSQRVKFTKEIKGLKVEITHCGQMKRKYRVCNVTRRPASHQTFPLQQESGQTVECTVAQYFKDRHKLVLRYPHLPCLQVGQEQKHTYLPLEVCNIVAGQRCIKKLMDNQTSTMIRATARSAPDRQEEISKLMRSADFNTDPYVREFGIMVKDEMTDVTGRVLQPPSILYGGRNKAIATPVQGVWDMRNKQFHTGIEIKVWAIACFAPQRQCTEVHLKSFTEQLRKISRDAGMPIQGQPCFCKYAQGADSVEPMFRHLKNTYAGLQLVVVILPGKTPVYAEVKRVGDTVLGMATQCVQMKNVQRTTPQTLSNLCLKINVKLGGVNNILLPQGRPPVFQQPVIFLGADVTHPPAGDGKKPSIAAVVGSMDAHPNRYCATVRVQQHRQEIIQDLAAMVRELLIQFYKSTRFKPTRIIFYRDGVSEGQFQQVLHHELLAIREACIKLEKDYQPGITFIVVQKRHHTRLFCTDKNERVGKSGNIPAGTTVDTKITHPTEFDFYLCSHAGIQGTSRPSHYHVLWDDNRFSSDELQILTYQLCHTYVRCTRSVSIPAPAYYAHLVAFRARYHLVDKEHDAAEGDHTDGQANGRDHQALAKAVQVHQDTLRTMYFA
T2 sequence (Q9UKV8 whole entry L192P/S387D/S824A/S828D/S831D/S834A): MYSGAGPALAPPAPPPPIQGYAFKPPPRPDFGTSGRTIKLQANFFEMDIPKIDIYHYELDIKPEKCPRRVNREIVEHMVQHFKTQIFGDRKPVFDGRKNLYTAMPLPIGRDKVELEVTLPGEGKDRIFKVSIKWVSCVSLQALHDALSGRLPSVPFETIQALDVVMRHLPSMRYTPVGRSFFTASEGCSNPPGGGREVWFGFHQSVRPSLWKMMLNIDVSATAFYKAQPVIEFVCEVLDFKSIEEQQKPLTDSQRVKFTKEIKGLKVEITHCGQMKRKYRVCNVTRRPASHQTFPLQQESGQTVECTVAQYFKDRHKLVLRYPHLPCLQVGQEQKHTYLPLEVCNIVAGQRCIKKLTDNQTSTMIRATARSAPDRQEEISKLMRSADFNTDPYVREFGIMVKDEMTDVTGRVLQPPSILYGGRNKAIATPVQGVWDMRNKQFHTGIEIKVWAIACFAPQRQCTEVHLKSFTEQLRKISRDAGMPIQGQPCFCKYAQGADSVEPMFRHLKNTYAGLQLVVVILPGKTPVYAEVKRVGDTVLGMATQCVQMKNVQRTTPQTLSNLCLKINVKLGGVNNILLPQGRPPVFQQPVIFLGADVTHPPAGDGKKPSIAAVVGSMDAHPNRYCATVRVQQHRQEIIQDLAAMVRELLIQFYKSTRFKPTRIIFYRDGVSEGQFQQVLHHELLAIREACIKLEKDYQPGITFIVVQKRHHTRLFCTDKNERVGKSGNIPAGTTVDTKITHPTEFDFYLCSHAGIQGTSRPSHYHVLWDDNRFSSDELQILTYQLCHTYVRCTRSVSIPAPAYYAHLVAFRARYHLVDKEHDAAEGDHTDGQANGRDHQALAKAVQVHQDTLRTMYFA
T3 sequence (Q9UKV8 other isoform, or with tags, fused parts or gaps S387D;S824A;S828D;S831D;S834A;del182-182): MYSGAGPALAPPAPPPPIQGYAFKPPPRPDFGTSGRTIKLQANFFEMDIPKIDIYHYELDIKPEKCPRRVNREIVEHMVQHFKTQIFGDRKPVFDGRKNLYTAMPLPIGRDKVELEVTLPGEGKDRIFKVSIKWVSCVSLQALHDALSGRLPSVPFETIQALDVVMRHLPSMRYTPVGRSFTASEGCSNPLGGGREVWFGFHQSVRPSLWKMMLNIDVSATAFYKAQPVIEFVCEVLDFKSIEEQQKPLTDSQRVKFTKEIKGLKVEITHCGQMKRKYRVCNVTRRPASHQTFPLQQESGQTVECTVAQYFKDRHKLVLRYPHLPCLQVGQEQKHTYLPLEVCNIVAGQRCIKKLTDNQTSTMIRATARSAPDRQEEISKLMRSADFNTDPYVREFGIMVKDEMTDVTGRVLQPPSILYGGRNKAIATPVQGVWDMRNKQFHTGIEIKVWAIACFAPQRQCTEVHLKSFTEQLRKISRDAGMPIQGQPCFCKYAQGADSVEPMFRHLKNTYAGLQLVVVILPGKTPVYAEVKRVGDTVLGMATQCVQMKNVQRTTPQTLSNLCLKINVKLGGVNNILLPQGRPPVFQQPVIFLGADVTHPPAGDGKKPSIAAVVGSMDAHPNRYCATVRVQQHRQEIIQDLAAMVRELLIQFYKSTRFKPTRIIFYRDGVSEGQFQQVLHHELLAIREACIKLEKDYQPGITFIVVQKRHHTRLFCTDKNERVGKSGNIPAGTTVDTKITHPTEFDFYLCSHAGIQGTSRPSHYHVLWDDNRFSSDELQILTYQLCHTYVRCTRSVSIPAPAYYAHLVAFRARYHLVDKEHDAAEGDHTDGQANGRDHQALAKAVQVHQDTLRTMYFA

Take UGGAGUGUGACAAUGGUGUUUG (ssRNA, 5' phosphate) [miR-122 guide RNA]: the binding result with AGO2 A367P [1], with AGO2 L192P [2], with AGO2 F182del [3] and in the data set with AGO2 T357M [4] was “binds” each time.

B1: miR-122 guide / biotinylated capture oligo (DNA:RNA)
RNA: UGGAGUGUGACAAUGGUGUUUG
DNA: TCTCGTCTAACCATGCCAACACTCCAACTCT
modifications: 5' phosphate on guide
With B1, the binding result in the data set with AGO2 A367P [5], in the data set with AGO2 L192P [6], with AGO2 F182del [7] and with AGO2 T357M [8] was “binds” in each case.

B2: miR-122 guide / seed-matched target RNA (dsRNA)
RNA 1: UGGAGUGUGACAAUGGUGUUUG
RNA 2: AAAAAAAAAAAAACACUCCUAA
modifications: 5' phosphate on guide
Turning to B2, the binding signal is 1.8 fold lower KD than WT (not significant) with AGO2 T357M [9]; > 5 fold slower association than WT (at least) with AGO2 A367P [10]; > 5 fold slower association than WT (at least) in the data set with AGO2 L192P [11]; ~20 fold slower koff (slow phase) vs near-WT fast phase with AGO2 A367P [12]; ~20 fold slower koff (slow phase) vs near-WT fast phase with AGO2 T357M [13]; ~20 fold slower koff (slow phase) vs near-WT fast phase in the data set with AGO2 L192P [14].
